Test results from the DeepSol protein solubility set.

assay: soluble on expression in E. coli; label from the status in PepcDB or PDB records

Row | Sequence | soluble on expression in E. coli
1 | VRVLSYDKEKLNWLYKDPQGLVQGPFSLTQLKAWSDAEYFTKQFRVWMTGESMESAVLLTDVLRL | soluble
2 | VSIAQAQVVVSSKIDTEGGVLGNIILAVLNQNKIETTDRIQLGATPVVRKAITAGEIDIYPEYTGNAAFFFSKADDPLWKDAAKGYEEAKTLDYDANKIVWLAPSPANNTWAIALRKDVADKNNLKTLSDFGKYVAGGGTVVLAASSEFVNSAAALPAFQTTYGFTMKPDQLITLSGGDTAATIAAAANQTNNANAAMVYGTDGGIAPSGLVVLEDDKHVQPVYQPAPIIREEVLKKHPNIEELLKPVFEKLDLATLQDLNARVQVGGEQAKTVAMDFLTKNGFAK | soluble
3 | VSLDKKLMPVPDGHPDVFDREWPLRVGDIDRAGRLRLDAACRHIQDIGQDQLREMGFEETHPLWIVRRTMVDLIRPIEFGDMLRCRRWCSGTSNRWCEMRVRVDGRKGGLIESEAFWIHVNRETEMPARIADDFLAGLHRTTSVDRLRWKGYLKPGSRDDASEIHEFPVRVTDIDLFDHMNNAVYWSVIEDYLASHAELLRGPLRVTIEHEAPVALGDKLEIISHVHPAGSTEIFGPGLVDRAVTTLTYVVGDEPKAVASLFNL | soluble
4 | VSQLFEEKAKAVNELPTKPSTDELLELYALYKQATVGDNDKEKPGIFNMKDRYKWEAWENLKGKSQEDAEKEYIALVDQLIAKYSS | soluble
5 | VTAVPTDSAEKPAVADAGVRSVTRVIDLLELFDAAHPTRSLKELVEGTKLPKTTVVRLVATMCARSVLTSRADGSYSLGPEMLRWVRLAGRTWAPPEEVVDIMRQLSADTGETVNLYIRQGLSRVVVAQCESTATVRSVIPLGVPYPLWAGAAGKILLLAAPELIDDVAADSPHGPEFADQLREKVEDGRERGYQLVHGERELGSSGLSFPLVDSHGTVVAALTLGGPTGRFTEDRTPHYIECTRAAAEEISAIGLPGLD | soluble
6 | VTLSLTKDNFDDVVNNADIILVEFYAPWCGHCKKLAPEYEKAAKELSKRSPPIPLAKVDATEQTDLAKRFDVSGYPTLKIFRKGRPFDYNGPREKYGIVDYMIEQSG | soluble
7 | VTWKGSGQETVGAEPTLWAISDLHTGHLGNKPVAESLYPSSPDDWLIVAGDVAERTDEIRWSLDLLRRRFAKVIWVPGNHELWTTNRDPMQIFGRARYDYLVNMCDEMGVVTPEHPFPVWTERGGPATIVPMFLLYDYSFLPEGANSKAEGVAIAKERNVVATDEFLLSPEPYPTRDAWCHERVAATRARLEQLDWMQPTVLVNHFPLLRQPCDALFYPEFSLWCGTTKTADWHTRYNAVCSVYGHLHIPRTTWYDGVRFEEVSVGYPREWRRRKPYSWLRQVLPDPQYAPGYLNDFGGHFVITPEMRTQAAQFRERLRQRQSR | not soluble
8 | WFDTLNCHRLSDYQVGRAADIRLPEGCAFSDGIGSAFALEEAPPFSGRPDMPTAADFLALAAKGGYPAVHAAHAGLLYVRNKIALTAKEQAERRARP | not soluble
9 | WGTIPGQNFIYAHLNRVIKKYDLDMIYVSGPGHGGQVMVSNSYLDGTYSEVYPNVSRDLNGLKKLCKQFSFPGGISSHMAPETPGSINEGGELGYSLAHSFGAVFDNPDLITACVVGDGEAETGPLATSWQANKFLNPVTDGAVLPILHLNGYKISNPTVLSRIPKDELEKFFEGNGWKPYFVEGEDPETMHKLMAETLDIVTEEILNIQKNARENNDCSRPKWPMIVLRTPKGWTGPKFVDGVPNEGSFRAHQVPLAVDRYHTENLDQLEEWLKSYKPEELFDENYRLIPELEELTPKGNKRMAANLH | not soluble
10 | WLRDVLDSEAFRHTQATLPMALGKDISGQPIVVDMAKMPHLLVAGQTGGGKSVGINTMILSLLFKLTPEQVRFIMIDPKVVELSVYNDIPHLLTPVVTDMKKAANALRWAVGEMERRYLLISHLQVRNIEGYNDKIDQASAMNFPIPDPTWRPADSIGQLPPPLTKLSYIVLIVDEFADLIMSAGKEVEEYIMRIAQKARAVGIHLILATQRPST | not soluble
11 | WQENMLIPMMAINEDNLWVHQKYGYAIPRRNGKTEVVYILELWALHKGLKILHTAHRISTSHSSFEKVKKYLEMSGYVDGEDFISNKAKGQERIEFKSSGSVIQFRTRTSNGGLGEGFDLLIIDEAQEYTAEQESALKYTVTDSDNPMTIMCGTPPTMVSTGTVFESYRKECLKGDRRYSGWAEWSVDEMQPIHDVKSWYVANPSMGYHLNERKIEAELGEDEIDHNIQRLGYWPSFNQKSVISEKEWAKLKVEQVPELKSKLFVGIKFGQDGNNVSLSIAARASENKVFVEAIDCLSVRNGTQWIINFLKSADIAKVVVDGASGQELLAQEMREHGLKKPELPKVAEIITANTMWEQGIMQETICHNDQPSLTAVVTNCEKRQIGSNGGFGYKSLYDDRDISLMDSALLAHWICYTTKPKRKQRTSC | not soluble
12 | WSKIEKEQFYIAICAMNKTIAQKLFVLMKKAKKWLLQPDVRELKRFSIIDQKQLIYSYLIYHKINVNGEKIDAILDFIQPSQQKQYRLQNDIFLMVKNQCLALLYK | soluble
13 | YCICNQVSYGEMVGCDNQDCPIEWFHYGCVGLTEAPKGKWYCPQCTAAMKRRGSRHK | soluble
14 | YEFKKRNNIPMFFGIGNVTELFDVDSNGVNASIAAIGQEIGGNILFTPEASKKCKFSIKELKTASKMLFLAKKRNSLPKDVGYDLINYKDKKFDEEFELEDVKIIEAFENEKQLLDRGSFKIRVDRKNKEINATYYVHNQPKLIIRGNDPKKIYETALRENLITKMDHAAYFGKELRNAELALKLGKKYNQDFELFYNEFWN | not soluble
15 | YETQSREKQTRQQHEHMLMIVSNLYEETVHLKKTLKTTEKVTNDSYQLYREMKGKDVQLSGRILRLAGEIHEVKKDNQRIFAGLSKLISNESLRDYMRASDLLQLVIRMNEKYAEALGKQIDFYCSIEGEHDEYHVFIVLSIINNLTANAVEAMDEEGMVSLRLRKPNESMVEFQVEDNGPGISEKIGDIVFDPGFTSKYDEFGTPSTGIGLSYVKEIVTELEGDITFDNQQRGVVFAIRLPVRHLIQKG | not soluble
16 | YLDLWQTQDAKIRAKLAAVFQAEQNLNEAAIAYCLARALPEETAIFFANSMVVRYAEFFWQLNDQQILPYFNRGANGIDGTLSTALGIAENHSPAVLLTGDLALLHDINGFLTLSKFTGSLTIIVINNQGGGIFEMLPIAEEKDIFEDYFATPQTVEFSKVCDLYGIEYQAIQTKADLMQTCAILPPRGVRLLEVKTNRNQAMTWLKDLFQ | not soluble
17 | YPMVNNYLEMGHGLYVVEIHVKSNLHDTPLSKLISRGSYNIQPILVKREEAVYTNINDEFVLNEFDTLLLCGSRAELKYVAPRLV | not soluble
18 | YPNVEVFGEVPIQVVNAEPLGMHSNVMEAMFTAITRAKKNVYIETPYFIPTECLLQAIQTASMSGIDVRLVMPKRSDNDFVQYASNSYVEKLLRNKVRVYQYVNGFTHSKLMIVDDELVVVGSANMDIRSLELLFETNLFIYDKKVAQTVRDIYHTDMNNSKELNLRDWLQR | not soluble
19 | YRFSDFEMGLLQTHAEMAERMVNEIGGEHLEIRVLAEITELLQERNEELSPFLTRVLSMATELIGADTGSIAIVQERDGEKWLVVEDEEGTIVGAKNKSWLKKYIPPFRIGGHELPAEERSLTGYVAWSKQPKIIAHVADEQGGEGFHRSMHELIKSEIAVPIVCDDEVIAVVCLNSLKPAWFTEEHKRILQIIDRLTSRHISDVQRIERLEGEVTRLKTDVAYKDPQISSYR | not soluble
20 | YSLAVGGSSPFAEELMQELALTTEQLQVRAQEVLTEILNDYSSLRVKTIDSFFQEVMRAFSHELGLPGGFRIEMEQKAVLEQAVVRLLHSLGEKDTSDVENWIRRLAEDLIEEGRGHNIRREIVSLGDELFKEQLLLLSEEGKLPTKAAIHRYQTEMNKLMEGFEQRRLSIARRAEEIVATAGISFYDFKGGTKGGILEFAKVLKGGEVKPPTKTFMAMAEGDPETTLYAKTTPATTQAAILSAYQSGLKECLTEMATLYLGREWQEYSTAKQSLPFLNRLGIISDLWRQIEGIRQEENKMLISDAPSLLHRIIDGSETPFVYDK | not soluble
21 | YTDEEWGFLQNQMICDLCEGYAIYRPRYILPDYNVYIQKGCEFLELPPPKDLDEALDGLLILYSHVPSITTYPVYIGRLDVLLEPFITDEEKDYIKIKRFLNHIDKTVPDSFCHANIGPYDTKAGRLILRAVIDLEAPTPNMTIRYDKSKTSREFAELAAKACLLVSKPSFANDAYYISDLGEEYGVASCYNALPECGGAYTLTRLRLGTIARTCKSADEMLNELLPRVAKCALSTMDKRHKFVVEESNFFNSSFLEKEGFIKRTNFTGMFAIVGLADATNHLLQCEGLNETFGKSVRGDEIATAIMDKLKEITDAHEGVYAERTGNRYLLHAQVGASNHEEDKRNAPAHRIRVGEEPTLLAHLKQSAPFHKYFPSGTGDLFAFDQTYVDHCDAVVDIIDGAFSLGYRYITTYLKNTDLIRVTGYLVKKSEVEKYRKGEVALR | not soluble
22 | YTIYKEPLSLAPFEKIPSPLRRGLGKVAEVFPDGMRGKSLLQRGSMTMEERYYGNARSFNFDQMKRVIPWAKKEWDHREVTAPIYAQSEHMDPVARMQHLDLFTWMRGDILVKADKINMAHSLELRVPFLDKEVFEVAETIPYDLKIANGTTKYALRKAMEQIVPPHVLHRKKLGFPVPMRHWLAGDELFGWAQDTINESMTDQYFDKAAVLAMLNEHKNGVSDHSRRLWTVLAFMIWHGIFVEHRIDPGIEKRDYPVYL | not soluble
23 | YTPPGRLGDESSGPRTDPRFSPAMVEALATFGLDAVAAAPPVSASDDLPTVLAAVGASHDGFQAVYDSIALDLPTDRDDVETSTETILGVDGNEITLHVFRPAGVEGVLPGLVYTHGGGMTILTTDNRVHRRWCTDLAAAGSVVVMVDFRNAWTAEGHHPFPSGVEDCLAAVLWVDEHRESLGLSGVVVQGESGGGNLAIATTLLAKRRGRLDAIDGVYASIPYISGGYAWDHERRLTELPSLVENDGYFIENGGMALLVRAYDPTGEHAEDPIAWPYFASEDELRGLPPFVVAVNELDPLRDEGIAFARRLARAGVDVAARVNIGLVHGADVIFRHWLPAALESTVRDVAGFAADRARLR | soluble
24 | YVLAVTACPTGIAHTYMARDALKKQAEKMNIKIKVETNGSSGIKNHLTEQDIERATGIIVAADVHVETDRFDGKNVVEVPVADGIKRPEELINTALDTNRKPF | not soluble
25 | YWASSQLTQLFLSTDLESLEPTCLSKDTIYQWKVVQTFGDRLRLRQRVLATAIVLLRRYMLKKNEEKGFSLEALVATCIYLSCKVEECPVHIRTICNEANDLWSLKVKLSRSNISEIEFEIISVLDAFLIVHHPYTSLEQAFHDGIINQKQLEFAWSIVNDSYASSLCLMAHPHQLAYAALLISCCNDENTIPKLLDLIKSTDAFKVILCVQRIISIYYFEDIEAAALEHHHHHH | soluble
